Assay in all cases: radiometric [3H]SAM methyl transfer, RP-HPLC / rapid biphasic separation
One data set addresses T1, DcFA-o-MT (Diaphorina citri, UniProt A0A075W3Z0).
T1 sequence (A0A075W3Z0 1-272): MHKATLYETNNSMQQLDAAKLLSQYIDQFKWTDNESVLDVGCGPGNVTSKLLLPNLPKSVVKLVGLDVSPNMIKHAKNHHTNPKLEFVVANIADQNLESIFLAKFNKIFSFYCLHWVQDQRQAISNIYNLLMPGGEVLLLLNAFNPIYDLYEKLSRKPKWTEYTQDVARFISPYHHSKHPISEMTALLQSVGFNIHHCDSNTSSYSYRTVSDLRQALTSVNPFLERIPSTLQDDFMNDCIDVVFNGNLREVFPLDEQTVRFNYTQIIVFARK
It counts as biochemical. The note with it: 10 μM SAM (saturating), 50 mM Tris-HCl pH 7.9, 25 °C, 30 min; no metal added; 357 pmol enzyme in 100 μL, well above Km; substrate 1-20 μM. The text has this:
(§1) radiometric [3H]SAM methyl transfer, RP-HPLC / rapid biphasic separation on DcFA-o-MT

Substrate in data set [1]: CC(C)=CCC/C(C)=C/CC/C(C)=C/C(=O)O
It counts as biochemical, Diaphorina citri. The note with it: 10 μM SAM (saturating), 50 mM Tris-HCl pH 7.9, 25 °C, 30 min, no metal added, 357 pmol enzyme in 100 μL, well above Km, substrate 1-20 μM.
Description: as §1

Substrate in data set [2]: C/C(=C\C(=O)O)CC/C=C(\C)CC[C@H]1OC1(C)C
The class given is biochemical, Diaphorina citri. The note with it: 10 μM SAM (saturating), 50 mM Tris-HCl pH 7.9, 25 °C, 30 min, no metal added, 357 pmol enzyme in 100 μL, well above Km, substrate 1-20 μM.
Description: as §1

Substrate in data set [3]: CC/C(=C\CC/C(C)=C\C(=O)O)CCC1OC1(C)CC
The class given is biochemical, Diaphorina citri. The note with it: 10 μM SAM (saturating), 50 mM Tris-HCl pH 7.9, 25 °C, 30 min, no metal added, 357 pmol enzyme in 100 μL, well above Km, substrate 1-20 μM, printed kcat/Km 143.4 does not match the printed Km and kcat.
Description: as §1

Substrate in data set [4]: CC/C(=C/CC/C(C)=C/C(=O)O)CCC1OC1(C)CC
The class given is biochemical, Diaphorina citri. Conditions: 10 μM SAM (saturating), 50 mM Tris-HCl pH 7.9, 25 °C, 30 min, no metal added, 357 pmol enzyme in 100 μL, well above Km, substrate 1-20 μM, error exceeds value, text b19 says Km is 100-fold that of FA,.
Description: as §1

As a reminder, the Km is the concentration of substrate that gives half-maximal velocity. Consider homoFA, for which the Km at DcFA-o-MT stood at 0.02 ± 0.01 µM.

B1: DcFA-o-MT (Diaphorina citri) (protein)
chain: T1 sequence (A0A075W3Z0 1-272)
Usually Vmax stands for the top rate of the reaction or transport when substrate is in excess. As a reminder, the kcat is the maximal rate divided by the concentration of active sites. A word on the kcat/Km: it is the second-order rate constant that governs catalysis at low substrate concentration. On to B1, for which, in data set [1], the Km was 0.46 ± 0.05 µM, the Vmax is 1.61e-05 µmol/min, the kcat worked out at 0.00075 ± 3e-05 s⁻¹ and the kcat/Km stood at 1640 M⁻¹ s⁻¹. Besides, in data set [2], the Km stood at 2.53 ± 0.72 µM, the Vmax was 2.8e-07 µmol/min, the kcat worked out at 1.3e-05 ± 2e-06 s⁻¹ and the kcat/Km was 5.14 M⁻¹ s⁻¹. Also, in data set [3], the Km was 5.65 ± 0.83 µM and the Vmax came out at 1.75e-06 µmol/min. In addition, in data set [4], the Km worked out at 4.58 ± 4.82 µM, the Vmax is 5e-08 µmol/min and the kcat/Km is 0.66 M⁻¹ s⁻¹.

These data come from publication PMC4398755, “Cloning and expressing a highly functional and substrate specific farnesoic acid o-methyltransferase from the Asian citrus psyllid (Diaphorina citri Kuwayama)” (FEBS Open Bio, 2015).
